# Measurements as given in patent publication US7556938B1, “Nucleic acids encoding potassium channel interactors” (Millennium Pharmaceuticals, Inc., priority 1998, dated 2009).
# T1: rKv4.3N (Rattus norvegicus, UniProt Q62897)
# T1 construct: expressed in transfected cells; host or cells: yeast HF7c (bait), mated with Y187 (fish)
# T1 sequence (Q62897 1-180): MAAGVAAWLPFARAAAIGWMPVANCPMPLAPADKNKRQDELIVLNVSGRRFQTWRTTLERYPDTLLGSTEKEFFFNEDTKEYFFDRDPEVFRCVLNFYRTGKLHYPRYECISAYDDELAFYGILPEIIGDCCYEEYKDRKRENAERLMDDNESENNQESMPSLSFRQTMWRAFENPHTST
# T2: rKv4.2 (Rattus norvegicus, UniProt Q63881)
# T2 construct: expressed in transfected cells; host or cells: CHO cells, transient transfection with GFP co-transfected
# T2 sequence (Q63881 1-630): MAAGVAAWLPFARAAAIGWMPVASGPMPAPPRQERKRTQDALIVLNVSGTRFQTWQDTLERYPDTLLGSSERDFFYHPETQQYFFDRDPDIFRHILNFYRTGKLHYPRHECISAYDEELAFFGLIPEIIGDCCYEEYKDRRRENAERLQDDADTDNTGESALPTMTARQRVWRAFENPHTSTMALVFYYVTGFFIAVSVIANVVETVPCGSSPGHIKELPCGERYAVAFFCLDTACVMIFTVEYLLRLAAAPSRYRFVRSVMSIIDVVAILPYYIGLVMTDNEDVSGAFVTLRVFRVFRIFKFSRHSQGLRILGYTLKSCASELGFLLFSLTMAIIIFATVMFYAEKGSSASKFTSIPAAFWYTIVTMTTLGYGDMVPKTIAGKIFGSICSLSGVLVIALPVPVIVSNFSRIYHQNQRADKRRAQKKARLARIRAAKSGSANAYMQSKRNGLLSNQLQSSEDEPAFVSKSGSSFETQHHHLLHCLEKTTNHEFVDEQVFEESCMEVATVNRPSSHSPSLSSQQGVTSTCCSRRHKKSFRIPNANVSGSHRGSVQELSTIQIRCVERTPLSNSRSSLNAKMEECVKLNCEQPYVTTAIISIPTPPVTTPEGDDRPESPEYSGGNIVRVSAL
# T3: rKv4.2N (Rattus norvegicus, UniProt Q63881)
# T3 construct: the N-terminal domains of Kv4.3, Kv4.2 were expressed as “baits” (Kv4.3N, Kv4.2N, respectively); expressed in transfected cells; host or cells: yeast HF7c (baits), mated with Y187 (fish)
# T3 sequence (Q63881 1-184 limits assumed): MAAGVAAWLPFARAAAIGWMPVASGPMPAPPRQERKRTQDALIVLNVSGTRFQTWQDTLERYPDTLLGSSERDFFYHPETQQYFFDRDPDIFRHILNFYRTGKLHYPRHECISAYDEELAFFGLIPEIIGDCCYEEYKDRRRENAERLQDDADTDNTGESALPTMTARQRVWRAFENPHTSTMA
# B1: Rat 7s: rat ortholog of the human vacuolar H(+)-ATPase catalytic subunit A (partial) (protein)
# chain: ADSTSRWAEALREISGRLAEMPADSGYPAYLGARLASFYERAGRVKCLGNPEREGSVSIVGAVSPPGGDFSDPVTSATLGIVQVFWGLDKKLAQRKHFPSVNWLISYSKYMRALDEYYDKHFTEFVPLRTKAKEILQEEEDLAEIVQLVGKASLAETDKITLEVAKLIKDDFLQQNGYTPYDRFCPFYKTVGMLSNMISFYDMARRAVETTAQSDNKITWSIIREHMGEILYKLSSMKFKDPVKDGEAKIKADYAQLLEDMQNAFRSLED
# B2: Rat 1p: partial rat PCIP of 267 amino acid residues, similar to human Restin (protein)
# chain: LKGARPRVVNSTCSDFNHGSALHIAASNLCLGAAKCLLEHGANPALRNRKGQVPAEVVPDPMDMSLDKAEAALVAKELRTLLEEAVPLSCTLPKVTLPNYDNVPGNLMLSALGLRLGDRVLLDGQKTGTLRFCGTTEFASGQWVGVELDEPEGKNDGSVGGVRYFICPPKQGLFASVSKVSKAVDAPPSSVTSTPRTPRMDFSRVTGKGRREHKGKKKSPSSPSLGSLQQREGAKAEVGDQVLVAGQNRDCAFLWEDRLCSRLLVWH
# B3: Rat 5p: identical to rat Calpactin I light chain or P10 (protein)
# chain: MPSQMEHAMETMMLTFHRFAGEKNYLTKEDLRVLMEREFPGFLENQKDPLAVDKIMKDLDQCRDGKVGFQSFLSLVAGLIIACNDYFVVHMKQKK
# B4: Rat 29x: identical at the amino acid level to rat SOCS-1 (Suppressor Of Cytokine Signaling) (protein)
# chain: ARLPAPEHARQQPLLSGPEPGSSARVPVPGVASRRQPRGGKPPSGDGLESGPSPRPLLHARGEAGLHRQSGRVPHTGTAYFADEPTEAQAPGGFCVSPSLLGVRWPACATRTPGSLPLSPPSAQPRTLWPTPPAGPSSRMVARNQVAADNAISPASEPRRRPEPSSSSSSSSPAAPARPRPCPVVPAPAPGDTHFRTFRSHSDYRRITRTSALLDACGFYWGPLSVHGAHERLRAEPVGTFLVRDSRQRNCFFALSVKMASGPTSIRVHFQAGRFHLDGSRETFDCLFELLEHYVAAPRRMLGAPLRQRRVRPLQELCRQRIVAAVGRENLARIPLNPVLRDYLSSFPFQI
# B5: Rat 33b07: PCIP of 407 amino acid residues, homologous to SET and Nucleosome Assembly Proteins (protein)
# chain: MNGVEGNNELPLANTSTSALVPEDLDLKQDQPLSEETDTVREMEAAGEAGAEGGASPDSEHCDPQLCLRVAENGCAAAAGEGLEDGLSSSKCGDAPLASVAANDSNKNGCQLAGPLSPAKPKTLEASGAVGLGSQMMPGPKKTKVMTTKGAISATTGKEGEAGAAMQEKKGVQKEKKAAGGGKDETRPRAPKINNCMDSLEAIDQELSNVNAQADRAFLQLERKFGRMRRLHMQRRSFIIQNIPGFWVTAFRNHPQLSPMISGQDEDMMRYMINLEVEELKHPRAGCKFKFIFQSNPYFRNEGLVKEYERRSSGRVVSLSTPIRWHRGQEPQAHIHRNREGNTIPSFFNWFSDHSLLEFDRIAEIIKGELWSNPLQYYLMGDGPRRGVRVPPRQPVESPRSFRFQSG
# B6: KChIP1 ΔN2-31: N-terminal truncation mutant of KChIP1, reduced to the C-terminal 185 amino acid core sequence (protein)
# chain: MLCSSLKLLHYLGLIDLSDDKIEDDLEMTMVCHRPEGLEQLEAQTNFTKRELQVLYRGFKNECPSGVVNEETFKQIYAQFFPHGDASTYAHYLFNAFDTTQTGSVKFEDFVTALSILLRGTVHEKLRWTFNLYDINKDGYINKEEMMDIVKAIYDMMGKYTYPVLKEDTPRQHVDVFFQKMDKNKD
# Biological target: T1, rKv4.3N
# Assay: Yeast two-hybrid binding and specificity test, Kv4.3 N-terminal bait
# Settings: not given
# Protocol: The first 180 amino acids of rKv4.3 (described in Serdio P. et al. (1996) J. Neurophys 75:2174-2179) were amplified by PCR and cloned in frame into pGBT9 resulting in plasmid pFWA2, (hereinafter “bait”). This bait was transformed into the two-hybrid screening strain HF7c and tested for expression and self-activation. The bait was validated for expression by Western blotting.
# (§1) Two-hybrid screens were carried out essentially as described in Bartel, P. et al. (1993) “Using the Two-Hybrid System to Detect Polypeptide-Polypeptide Interactions” in Cellular Interactions in Development: A Practical Approach, Hartley, D. A. ed. Oxford University Press, Oxford, pp. 153-179, with a bait-library pair of rkv4.3 bait-rat mid brain library. A filter disk beta-galactosidase (beta-gal) assay was performed essentially as previously described (Brill et al. (1994) Mol. Biol. Cell. 5:297-312). Clones that were positive for both reporter gene activity (His and beta-galactosidase) were scored and fish, plasmids were isolated from yeast, transformed into E. coli strain KC8, DNA plasmids were purified and the resulting plasmids were sequenced by conventional methods (Sanger F. et al. (1977) PNAS, 74: 5463-67).
# (§2) Positive interactor clones were subjected to a binding specificity test where they were exposed to a panel of related and unrelated baits by a mating scheme previously described (Finley R. L. Jr. et al. (1994) PNAS, 91(26):12980-12984). Briefly, positive fish plasmids were transformed into Y187 and the panel of baits were transformed into HF7c. Transformed fish and bait cells were streaked out as stripes on selective medium plates, mated on YPAD plates, and tested for reporter gene activity.
row,binding to rKv4.3N in yeast two-hybrid assay,Molecule
1,binds,B1
2,binds,B2
3,binds,B3
4,binds,B4
5,binds,B5

# Same assay, conditions: rKv4.3N versus rKv4.2N
row,preference between rKv4.3N and rKv4.2N in yeast two-hybrid assay,Molecule
1,preference for rKv4.3N,B1
2,slight preference for rKv4.3N,B2
3,slight preference for rKv4.3N,B4
4,slight preference for rKv4.2N,B5

# Biological target: T2, rKv4.2
# Assay: Patch-clamp of Kv4.2 currents in CHO cells coexpressing KChIPs
# Type: cell-based
# Settings: coexpressed with Kv4.2
# Protocol: HEK 293 and CHO cells were used for recordings 1-3 days after a transient transfection. Whole-cell currents were recorded from cells expressing GFP, identified by their green fluorescence. […] After Gigaseal and ruptured whole-cell configuration access, resistance was less than 10 MOhms. Whole-cell bath solutions were made from a 10× Hank's balanced salt solution (GibcoBRL) with the following final concentration (in mM): 138 NaCl, 5.4 KCl, 1.3 MgCl2, 1.3 CaCl2, 5.5 D-Glukos and 10 HEPES, pH 7.4. The intracellular electrode solution consisted of (in mM) 140 KCl, 10 HEPES, 10 EGTA, 0.5 MgCl2, pH 7.3. All chemicals were from Sigma (St. Louis, Mo.) or Fisher Scientific (Houston, Tex.). Membrane currents were recorded using a EPC9 patch-clamp amplifier (HEKA, Germany). Data were analyzed using Matlab (Natick, Ma), and leak subtracted if necessary. All experiments were done at room temperature.
# Because PCIPs, e.g., KChIP1 (1v), KChIP2 (9ql), and KChIP3 (p19), colocalize and coassociate with Kv4 α-subunits in brain, another critical question was to determine whether these PCIPs alter the conductance properties of Kv4 channels. To address this issue, Kv4.2 and Kv4.3 were expressed alone and in combination with individual PCIPs. CHO cells were transiently-transfected with cDNA using the DOTAP lipofection method as described by the manufacturer (Boehringer Mannheim, Inc.). Transfected cells were identified by cotransfecting enhanced GFP along with the genes of interest and subsequently determining if the cells contained green GFP fluorescence. Currents in CHO cells were measured using the patch-clamp technique (Hamill et al. 1981. Pfluegers Arch. 391: 85-100).
# First, the amplitude of the Kv4.2 current increased approximately 7.5 fold in the presence of KChIP1 (amplitude of Kv4.2 alone=0.60+/−0.096 nA/cell; Kv4.2+KChIP1=4.5+/−0.55 nA/cell). […] Finally, the kinetics of Kv4.2 inactivation slowed considerably when Kv4.2 was coexpressed with KChIP1 (inactivation time constant of Kv4.2 alone=28.2+/−2.6 ms; Kv4.2+KChIP1=104.1+/−10.4 ms), while channels recovered from inactivation much more rapidly in cells expressing both Kv4.2 and KChIP1 (recovery tau=53.6+/−7.6 ms) versus cells expressing Kv4.2 alone (recovery tau=272.2+/−26.1 ms).
row,Molecule,effects on Kv4.2 current density and kinetics
1,B6,indistinguishable from the effects produced by full-length KChIP1 or KChIP2

# Same assay, conditions: rKv4.2 coexpressed with the KChIP, at 50 mV
row,"Inactivation time constant (ms, at 50 mV) [ms]",Molecule
1,129.2 ± 14.2,B6

# Biological target: T3, rKv4.2N
# Assay: Yeast two-hybrid binding and specificity test, Kv4.2 N-terminal bait
# Settings: not given
# Protocol: as §1, §2
row,binding to rKv4.2N in yeast two-hybrid assay,Molecule
1,binds,B1
2,binds,B2
3,binds,B3
4,binds,B4
5,binds,B5

# Biological target: T4, rKv1.1N (Rattus norvegicus, UniProt P10499)
# T4 construct: expressed in transfected cells; host or cells: yeast HF7c (baits), mated with Y187 (fish)
# T4 sequence (P10499 1-164 limits assumed): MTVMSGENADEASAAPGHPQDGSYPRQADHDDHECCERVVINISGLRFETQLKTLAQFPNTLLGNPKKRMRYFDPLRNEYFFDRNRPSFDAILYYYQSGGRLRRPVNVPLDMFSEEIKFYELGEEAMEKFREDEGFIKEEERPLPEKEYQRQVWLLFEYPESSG
# Assay: Yeast two-hybrid binding and specificity test, Kv1.1 N-terminal bait
# Settings: not given
# Protocol: as §1, §2
row,binding to rKv1.1N in yeast two-hybrid assay,Molecule
1,does not bind,B1
2,does not bind,B2
3,does not bind,B3
4,does not bind,B4
5,does not bind,B5
